Assay results from article PMC4018492 (Genes & Development, 2014).

What was measured:
WDR5_(23–334) [1] = molecular target: T1, WDR5_(23–334) (human, UniProt P61964 23-334); assay: ITC
[2] = molecular target: 6xHis-WDR5 (residues 23–334) (human, UniProt P61964 23-334); assay: pull-down
WDR5_(23–334) [3] = molecular target: T1, WDR5_(23–334); assay: SEC

DGTCVAARTRPVLSY [KANSL1 WIN motif-containing peptide (585-DGTCVAARTRPVLS-598-Y)] showed a Kd (WDR5_(23–334) [1]) of 180 nM.

B1: KANSL1_(537–773) (domain or fragment)
chain: KSCGALRPVNGVINTLQPVLADHIPGDSSDAEEQLHKKQRLNLVSSSSDGTCVAARTRPVLSCKKRRLVRPNSIVPLSKKVHRNSTIRPGCDVNPSCALCGSGSINTMPPEIHYEAPLLERLSQLDSCVHPVLAFPDDVPTSLHFQSMLKSQWQNKPFDKIKPPKKLSLKHRAPMPGSLPDSARKDRHKLVSSFLTTAKLSHHQTRPDRTHRQHLDDVGAVPMVERVTAPKAERLLN
B1: binds [2].

B2: KANSL2_(381–492) (domain or fragment)
chain: DDLEAGPMDLYLSAAELQPTESLPLEFSDDLDVVGDGMQCPPSPLLFDPSLTLEDHLVKEIAEDPVDILGQMQMAGDGCRSQGSRNSEKASAPLSQSGLATANGKPEPTSIS
B2: binds (WDR5_(23–334) [3]).
